From patent publication US20210275653A1 come the findings set out here.

In the experiment the target is HLA-A*24 MHC class I molecule (peptide-receptive after UV-ligand exchange) (human). Nature of the experiment: UV-ligand exchange, anti-b2m ELISA; grade of peptide exchange yield (>=10% = +; >=20% = ++; >=50 = +++; >=75% = ++++). (In general: An ELISA detects its analyte on a solid surface through an enzyme-linked reagent.)

B1: peptide … (SEQ ID No. 45) (peptide)
peptide: RYFKTPRKF
B1 registered a peptide exchange yield of 20 to 50%.

B2: peptide … (SEQ ID No. 35) (peptide)
peptide: IYTRVTYYL
For the molecule B2, the peptide exchange yield lay within 20 to 50%.

B3: peptide … (SEQ ID No. 56) (peptide)
peptide: LFHPEDTGQVF
For the molecule B3, the peptide exchange yield fell in the range of 20 to 50%.

B4: peptide … (SEQ ID No. 55) (peptide)
peptide: LYFEKGEYF
On to B4, for which the peptide exchange yield was greater than 75%.

B5: peptide … (SEQ ID No. 28) (peptide)
peptide: YYAKEIHKF
The molecule B5 came in with a peptide exchange yield greater than 75%.

B6: peptide … (SEQ ID No. 25) (peptide)
peptide: IYEPYLAMF
The molecule B6 registered a peptide exchange yield of 50 to 75%.

B7: peptide … (SEQ ID No. 33) (peptide)
peptide: QYGKDFLTL
Turning to B7, the peptide exchange yield is 50 to 75%.

B8: peptide … (SEQ ID No. 30) (peptide)
peptide: SYSPAHARL
B8: the peptide exchange yield is 50 to 75%.

B9: peptide … (SEQ ID No. 31) (peptide)
peptide: AYTSPPSFF
The molecule B9 showed a peptide exchange yield of 50 to 75%.

B10: peptide … (SEQ ID No. 43) (peptide)
peptide: AYIKNGQLF
For B10, the peptide exchange yield was in the range of 50 to 75%.

B11: peptide … (SEQ ID No. 44) (peptide)
peptide: VYNTVSEGTHF
The molecule B11 had a peptide exchange yield of 50 to 75%.

B12: peptide … (SEQ ID No. 41) (peptide)
peptide: RYLQKIEEF
In turn, B12 had a peptide exchange yield of 50 to 75%.

B13: peptide … (SEQ ID No. 54) (peptide)
peptide: AYSEKVTEF
For the molecule B13, the peptide exchange yield is 50 to 75%.

B14: peptide … (SEQ ID No. 34) (peptide)
peptide: AFSPDSHYLLF
As to B14, the peptide exchange yield lay in the range of 50 to 75%.

B15: peptide … (SEQ ID No. 47) (peptide)
peptide: SYTPVLNQF
B15 came in with a peptide exchange yield greater than 75%.

B16: peptide … (SEQ ID No. 27) (peptide)
peptide: GYLQGLVSF
As for B16, the peptide exchange yield is greater than 75%.

B17: peptide … (SEQ ID No. 58) (peptide)
peptide: GYIDKVRQL
Regarding B17, the peptide exchange yield is 20 to 50%.

B18: peptide … (SEQ ID No. 32) (peptide)
peptide: PYQLNASLFTF
As to B18, the peptide exchange yield is greater than 75%.

B19: peptide … (SEQ ID No. 29) (peptide)
peptide: RYGSPINTF
In turn, B19 gave a peptide exchange yield of 50 to 75%.

B20: peptide … (SEQ ID No. 24) (peptide)
peptide: SYNDALLTF
As to B20, the peptide exchange yield lay in the range of 50 to 75%.

B21: peptide … (SEQ ID No. 36) (peptide)
peptide: RYMWINQEL
Turning to B21, the peptide exchange yield was in the range of 50 to 75%.

B22: peptide … (SEQ ID No. 42) (peptide)
peptide: TYIGQGYII
As for B22, the peptide exchange yield lay within 50 to 75%.

B23: peptide … (SEQ ID No. 59) (peptide)
peptide: IYPDVTYAF
B23 returned a peptide exchange yield of 50 to 75%.

B24: peptide … (SEQ ID No. 26) (peptide)
peptide: RYADDTFTPAF
On to B24, for which the peptide exchange yield lay within 50 to 75%.

B25: peptide … (SEQ ID No. 48) (peptide)
peptide: AWAPKPYHKF
B25 returned a peptide exchange yield of 50 to 75%.
